How the values were obtained:
[1] = biological target: proGeh (glycerol ester hydrolase, pro form) (S. aureus); test: SEC; analytical gel filtration column (HiLoad 13/300 Super 200); molecular weight estimated from a standard curve (thyroglobulin, ferritin, aldolase, conalbumin, ovalbumin, RNase A, aprotinin)
[2] = biological target: mature Geh (mGeh) (S. aureus); test: as above

## proGeh (glycerol ester hydrolase, pro form) (from UniProt A0A1R3UHM3 38-645) (enzyme)
[1]
  stoichiometry N: 2

## mature Geh (mGeh) (enzyme)
[2]
  stoichiometry N: 2

From PMC10117073
